From patent publication US20090291088A1, “THERAPEUTIC COMBINATIONS OF ANTI-IGF-1R ANTIBODIES AND OTHER COMPOUNDS” (Biogen Idec MA Inc., priority 2008, published 2009)

Experiments:
[1] = target: human IGF-1R(1-902)-His10 (human) (UniProt P08069); assay: ELISA, plate coated with rh-IGF-1R, bound antibody detected with anti-mouse IgG Fc-HRP
[2] = target: human IGF-1R(1-903)-Fc (human) (UniProt P08069); assay: ELISA on hIGF-1R-Fc, competitor biotinylated M14-G11
[3] = target: human IGF-1R(1-903)-Fc (human) (UniProt P08069); assay: competition ELISA: biotinylated hIGF-1R-Fc on streptavidin plate, 320 nM human IGF-1 His, detection with anti-His-HRP; blocked ligand human IGF-1 His
[4] = target: human IGF-1R(1-903)-Fc (human) (UniProt P08069); assay: ELISA on hIGF-1R-Fc, competitor Zenon-labelled αIR3

- EC50 (read off the curve) [1]: 0.2 nM
- percent competition (relative to self-competition) [2]: 90 to 100%
- IC50 (read off the curve) [3]: 5 nM
- percent competition (relative to self-competition) [4]: 90 to 100%
Substance: αIR3 (antibody)
